Measurements taken from publication PMC4750549.
One block for each substance: values may come before it.

Experiments:
[1] = target: CD200 (Homo sapiens) (UniProt P41217); conditions: cited from earlier work
[2] = target: CD200 (Mus musculus) (UniProt O54901); conditions: cited from earlier work
[3] = target: CD200 (Rattus norvegicus) (UniProt P04218); conditions: cited from earlier work
[4] = target: rabbit CD200R rCD4d3+4 chimeric protein, biotinylated (rabbit (Oryctolagus cuniculus)); test: SPR; BIAcore 3000, 37 °C, 10 mM HEPES pH 7.5, 150 mM NaCl, 3 mM EDTA, 0.02% P20; biotinylated rCD4d3+4 chimeras from concentrated tissue culture supernatants immobilised on streptavidin coated CM5 chip; purified monomeric soluble protein passed over in increasing concentrations; equilibrium binding, Langmuir isotherm
Chain of rabbit CD200R rCD4d3+4 chimeric protein, biotinylated (rabbit (Oryctolagus cuniculus)) (main, as listed by the source mutant): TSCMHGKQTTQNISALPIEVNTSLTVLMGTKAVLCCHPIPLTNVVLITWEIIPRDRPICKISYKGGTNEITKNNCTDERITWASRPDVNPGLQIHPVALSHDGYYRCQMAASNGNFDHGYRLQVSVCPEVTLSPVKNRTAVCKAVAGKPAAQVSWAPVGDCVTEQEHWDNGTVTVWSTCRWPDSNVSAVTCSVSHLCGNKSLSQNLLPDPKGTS

[5] = target: rat CD200R rCD4d3+4 chimeric protein, biotinylated (rat) (UniProt Q9ES58); test: as above
[6] = target: rabbit CD200 rCD4d3+4 chimeric protein, biotinylated (rabbit (Oryctolagus cuniculus)); test: as above

Chain of UniProt O54901 (O54901 31-232): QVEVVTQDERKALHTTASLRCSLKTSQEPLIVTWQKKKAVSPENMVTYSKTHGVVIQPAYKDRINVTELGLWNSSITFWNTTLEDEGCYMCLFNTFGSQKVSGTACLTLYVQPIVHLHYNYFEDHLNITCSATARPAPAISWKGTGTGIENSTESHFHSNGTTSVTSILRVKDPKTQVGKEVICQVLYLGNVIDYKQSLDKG
Chain of UniProt P04218 (P04218 31-232): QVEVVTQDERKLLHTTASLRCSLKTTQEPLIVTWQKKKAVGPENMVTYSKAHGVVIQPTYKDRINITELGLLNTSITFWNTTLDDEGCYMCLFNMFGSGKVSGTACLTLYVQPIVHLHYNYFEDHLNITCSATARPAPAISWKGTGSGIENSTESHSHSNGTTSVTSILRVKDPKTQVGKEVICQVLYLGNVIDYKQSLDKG
Chain of UniProt P41217 (P41217 31-232): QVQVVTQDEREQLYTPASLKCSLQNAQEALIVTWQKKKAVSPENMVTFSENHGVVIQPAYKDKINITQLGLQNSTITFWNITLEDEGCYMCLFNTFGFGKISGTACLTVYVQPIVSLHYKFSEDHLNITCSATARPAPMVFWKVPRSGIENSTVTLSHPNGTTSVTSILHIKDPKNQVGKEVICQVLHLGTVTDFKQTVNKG

Substance: CD200R (from UniProt Q8TD46)
Kd [1]: 0.5 µM

Substance: CD200R (from UniProt Q9ES57)
Kd [2]: 4 µM

Substance: CD200R (from UniProt Q9ES58)
Kd [3]: 1.5 µM

Kd [4]: 3.3 to 3.4 µM
Kd [5]: 5.1 µM
Substance: soluble recombinant rabbit CD200 (extracellular region, His tag) (from UniProt A0A0S4XRM6 1-233) (ligand)

Kd [6]: 3.3 to 3.4 µM
Substance: soluble recombinant rabbit CD200R (extracellular region, His tag) (from UniProt A0A0S4XR64 1-238) (receptor)
